Laboratory results taken from US10221404B2, “Method for modifying characteristics of a lipase” (Novozymes A/S, priority 2014, dated 2019).

Experiments:
[1] = AMSA wash performance, specificity of inhibitory effect of propeptide; details: for With inhibitor RP (wash): propeptide SEQ ID No: 4 in 320:1 molar ratio, 3 hours at 4° C., normalized to wash performance without inhibitor; for No inhibitor RP (wash): without propeptide SEQ ID No: 4, normalized per lipase
Protocol: (§1) Washing experiments were performed using Automatic Mechanical Stress Assay (AMSA) in order to assess the wash performance in laundry. The AMSA plate has a number of slots for test solutions and a lid firmly squeezing the laundry sample, the textile to be washed against all the slot openings. During the washing time, the plate, test solutions, textile and lid were vigorously shaken to bring the test solution in contact with the textile and apply mechanical stress in a regular, periodic oscillating manner. For further description see WO02/42740 especially the paragraph “Special method embodiments” at page 23-24.
(§2) The laundry experiments were conducted in Model Detergent B, pH8. The experimental conditions are specified below:
(§3) Final adjustments to the specified pH were done with NaOH or citric acid. Water hardness was adjusted to 15° dH by addition of CaCl2 and MgCl2 (Ca^2+:Mg^2+=4:1) to the test system.
(§4) After washing the textiles were flushed in tap water and excess water was removed from the textiles using filter paper and immediately thereafter the textiles were dried at 85° C. for 5 min.
(§5) The wash performance was measured as the color change of the washed soiled textile. The soil was cream mixed with turmeric. Turmeric contains the colorant curcumin, which function as a pH indicator by having pH dependent color change. Lipase activity leads to release of free fatty acids from the cream acylglycerides and this leads to pH decrease and thereby color change of the curcumin pH indicator. Lipase wash performance can therefore be expressed as the extent of color change of light reflected-emitted from the washed soiled textile when illuminated with white light.
(§6) Color measurements were made with a professional flatbed scanner (EPSON EXPRESSION 10000XL, Atea NS, Lautrupvang 6, 2750 Ballerup, Denmark), which was used to capture an image of the washed soiled textile. To extract a value for the light intensity from the scanned images, 24-bit pixel values from the image were converted into values for red, green and blue (RGB).
(§7) Color change due to lipase activity was measured as the increase in the reflection-emitting of green light (G) relative to the sum of reflected-emitted blue (B) and red (R) light. The wash performance (RP(Wash)) of a lipase relative to a reference lipase (Lipolase™) was calculated as: RP(Wash)=(G/(B+R)(tested lipase)−G/(B+R)(no enzyme))/(G/(B+R)(lipase ref.)−G/(B+R)(no enzyme)).
The inhibitory specificity of the isolated propeptide was determined by mixing the isolated propeptide in a 320:1 molar ratio with 5 different lipases including the active RmL. All enzymes were diluted in 10 mM succinic acid buffer, pH6.5, to a concentration of 1.5 uM and were mixed (1:1) with purified propeptide dilutions. After 3 hours incubation at 4° C. the lipase performance of the incubated lipase-inhibitor samples were determined by Automatic Mechanical Stress Assay (AMSA) as described above. The relative wash performance “RP(wash)” is for each lipase normalized to the wash performance without inhibitor.

[2] = Hydrolytic activity, kinetic assay with p-nitrophenyl acyl esters; format: biochemical; details: substrates C3, C6, C10, C12, C16 at 1 mM; 50 mM Tris pH 7.7, 0.4% TritonX-100; 405 nm for 5 minutes
Protocol: The hydrolytic activity of RmL with and without propeptide on various fatty acids was investigated in a kinetic assay using p-nitrophenyl acyl esters as substrate. The 100 mM stock solutions in DMSO of the substrates: p-Nitrophenyl butyrate (C3), p-Nitrophenyl caproate (C6), p-Nitrophenyl caprate (C10), p-Nitrophenyl laurate (C12) and p-Nitrophenyl palmitate (C16) (all from Sigma-Aldrich Danmark NS, Kirkebjerg Allé 84, 2605 Brondby; Cat. no.: C3:N-9876, C6: N-0502, C10: N-0252, C12: N-2002, C16: N-2752) were diluted to a final concentration of 1 mM into assay buffer (50 mM Tris; pH 7.7; 0.4% TritonX-100).
RmL with and without propeptide and appropriate controls: Buffer (negative), Lipex™ (positive) RmL with and without propeptide in 50 mM Hepes pH8.0; 10 ppm TritonX-100; 20 mM CaCl2 were added to the substrate solution in the following final concentrations: 0.01 mg/mL; 5×10^−3 mg/mL; […]; and 1.25×10^−4 mg/mL in 96-well NUNC plates (Cat. No: 260836, Kamstrupvej 90, DK-4000, Roskilde). Release of p-nitrophenol by hydrolysis of p-nitrophenyl acyl was monitored at 405 nm for 5 minutes in 10 second intervals on a Spectra max 190 (Molecular Devices GmbH, Bismarckring 39, 88400 Biberach an der Riss, GERMANY).

[3] = AMSA wash performance after activation with detergent and/or protease; design: key to No (RP) / Det (RP) / Sav (RP) / Det + Sav (RP): wash performance relative to reference lipase (Lipolase), RP ratio
Protocol: as §1, §2, §3, §4, §5, §6, §7
Wild type RmL without or with propeptide respectively were submitted to no, detergent, protease or detergent+protease treatment prior to performance test in AMSA to test the activation level of the lipase after the treatment. […] […] Wash performance of all samples were determined by Automatic Mechanical Stress Assay (AMSA) as described above.

B1: isolated propeptide: propeptide of RmL, amino acid sequence SEQ ID No: 4, purified from RmL (protein, listed as Rhizomucor miehei)
chain: VPIKRQSNSTVDSLPPLIPSRTSAPSSSPSTTDPEAPAMSRNGPLPSDVETKYGMALNATSYPDSVVQAM
- inhibitory specificity of the isolated propeptide ([1]; 320:1 molar ratio with different lipases): exclusively effect with RmL

B2: SEQ ID NO: 6 (MuciLip2CN): lipase of SEQ ID NO: 6, tested for propeptide specificity (protein)
chain: MVSFVSISQGISLFIVVSSMLTGSAHAAPASSHSNSSKNATTSDASTFTLPPIISSRVTPPKVPSGSHNVEDANVAKNKKWFEAHGGKLNVTKRADETVGGYTMDLPSNAPPLPAVPSTSTVVIASTAQISEFKKYAGIASTAYCRSVVPLNQWSCTNCLKFVPDGKLIKTFTSLVTDTNGFVLRSDAQKTIYVVFRGTNSIRSAITDLVFELTNYTPVSGAKVHTGFYASYKAVVSDYFPAVQSQLTAYPGYKVIVTGHSLGGAQALLAGMDLYQREPRLSKSNLAIYTVGCPRVGNPAFAYYVDSTGITFSRSVNNRDIVPHVPPQAWGFLHPGVEAWARSSSNVQICTPNIETGLCSNSIVPFTSFTDHLTYYDLNEGLCL
modifications: Mucor circinelloides
- With inhibitor RP (wash) [1]: 1.10
- No inhibitor RP (wash) [1]: 1.00

B3: SEQ ID NO: 7 (RhimiLip1): lipase of SEQ ID NO: 7, tested for propeptide specificity (protein)
chain: MVSFISISQGVSLCLLVSSMMLGSSAVPVAGHKGSVKATNGTDFQLPPLISSRCTPPSHPETTGDPDAEAYYINKSVQWYQAHGGNYTALIKRDTETVGGMTLDLPENPPPIPATSTAPSSDSGEVVTATAAQIKELTNYAGVAATAYCRSVVPGTKWDCKQCLKYVPDGKLIKTFTSLLTDTNGFILRSDAQKTIYVTFRGTNSFRSAITDMVFTFTDYSPVKGAKVHAGFLSSYNQVVKDYFPVVQDQLTAYPDYKVIVTGHSLGGAQALLAGMDLYQREKRLSPKNLSIYTVGCPRVGNNAFAYYVDSTGIPFHRTVHKRDIVPHVPPQAFGYLHPGVESWIKEDPADVQICTSNIETKQCSNSIVPFTSIADHLTYFGINEGSCL
modifications: Rhizopus microsporus var. chinensis
- With inhibitor RP (wash) [1]: 0.92
- No inhibitor RP (wash) [1]: 1.00

B4: SEQ ID NO: 5 (Lipex): commercial lipase product Lipex (Novozymes A/S), SEQ ID NO: 5 (protein, listed as Thermomyces lanuginosus)
chain: EVSQDLFNQFNLFAQYSAAAYCGKNNDAPAGTNITCTGNACPEVEKADATFLYSFEDSGVGDVTGFLALDNTNKLIVLSFRGSRSIENWIGNLNFDLKEINDICSGCRGHDGFTSSWRSVADTLRQKVEDAVREHPDYRVVFTGHSLGGALATVAGADLRGNGYDIDVFSYGAPRVGNRAFAEFLTVQTGGTLYRITHTNDIVPRLPPREFGYSHSSPEYWIKSGTLVPVRRRDIVKIEGIDATGGNNQPNIPDIPAHLWYFGLIGTCL
- With inhibitor RP (wash) [1]: 0.89
- No inhibitor RP (wash) [1]: 1.00

B5: RmL with propeptide: Rhizomucor miehei lipase with its native N-terminal propeptide non-covalently bound (inactive RmL) (protein, UniProt P19515 25-363, looked up)
pro-form: VPIKRQSNSTVDSLPPLIPSRTSAPSSSPSTTDPEAPAMSRNGPLPSDVETKYGMALNATSYPDSVVQAMSIDGGIRAATSQEINELTYYTTLSANSYCRTVIPGATWDCIHCDATEDLKIIKTWSTLIYDTNAMVARGDSEKTIYIVFRGSSSIRNWIADLTFVPVSYPPVSGTKVHKGFLDSYGEVQNELVATVLDQFKQYPSYKVAVTGHSLGGATALLCALDLYQREEGLSSSNLFLYTQGQPRVGDPAFANYVVSTGIPYRRTVNERDIVPHLPPAAFGFLHAGEEYWITDNSPETVQVCTSDLETSDCSNSIVPFTSVLDHLSYFGINTGLCT
modifications: pro-form
- hydrolytic activity on p-nitrophenyl acyl esters [2]: no activity
- Sav (RP) ([3]; 10 minutes in 1.35% (v/v) Savinase in 10 mM succinic acid pH6.5): 0.27
- Det + Sav (RP) ([3]; 10 minutes in 1.35% (v/v) Savinase in 77% (w/w) Detergent B): 0.88
- Det (RP) ([3]; 10 minutes in 77% (w/w) Model detergent B): 0.60
- No (RP) ([3]; 60 minutes in 10 mM succinic acid pH6.5): 0.18
- Sav (RP) ([3]; 60 minutes in 1.35% (v/v) Savinase in 10 mM succinic acid pH6.5): 0.39
- Det + Sav (RP) ([3]; 60 minutes in 1.35% (v/v) Savinase in 77% (w/w) Detergent B): 0.85
- Det (RP) ([3]; 60 minutes in 77% (w/w) Model detergent B): 0.69
- activation level of the lipase ([3]; Savinase treatment in detergent, after 10 minutes): full activation
